Molecular target: T1, PCPE1 (Homo sapiens (Human), UniProt Q15113)
T1 chain: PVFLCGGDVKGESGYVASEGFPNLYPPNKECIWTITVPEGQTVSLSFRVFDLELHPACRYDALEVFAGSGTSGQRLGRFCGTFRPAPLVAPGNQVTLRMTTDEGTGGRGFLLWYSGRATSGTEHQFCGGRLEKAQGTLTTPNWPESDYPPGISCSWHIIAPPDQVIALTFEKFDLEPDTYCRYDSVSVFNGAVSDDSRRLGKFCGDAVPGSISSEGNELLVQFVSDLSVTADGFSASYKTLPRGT
Assay: Ki app, fluorogenic peptide

B1: BMP1 (protein)
chain: AATSRPERVWPDGVIPFVIGGNFTGSQRAVFRQAMRHWEKHTCVTFLERTDEDSYIVFTYRPCGCCSYVGRRGGGPQAISIGKNCDKFGIVVHELGHVVGFWHEHTRPDRDRHVSIVRENIQPGQEYNFLKMEPQEVESLGETYDFDSIMHYARNTFSRGIFLDTIVPKYEVNGVKPPIGQRTRLSKGDIAQARKLYKCPACGETLQDSTGNFSSPEYPNGYSAHMHCVWRISVTPGEKIILNFTSLDLYRSRLCWYDYVEVRDGFWRKAPLRGRFCGSKLPEPIVSTDSRLWVEFRSSSNWVGKGFFAVYEAICGGDVKKDYGHIQSPNYPDDYRPSKVCIWRIQVSEGFHVGLTFQSFEIERHDSCAYDYLEVRDGHSESSTLIGRYCGYEKPDDIKSTSSRLWLKFVSDGSINKAGFAVNFFK
apparent Ki: > 150 nM

— publication PMC10696041 (2023)
